Square brackets hold non-standard residues; d marks the D form. Ends that are not written are not given here. Aib = CC(C)(N)C(=O)O
How the values were obtained:
human GLP-1 receptor = target: T1, human GLP-1 receptor (Homo sapiens, UniProt P43220); assay: In vitro cAMP activity in human GLP-1 receptor-expressing CHO cells (LANCE cAMP kit); assay type: cell-based; conditions: long-acting conjugates (peptide-PEG-immunoglobulin Fc); relative titer from cAMP EC50, human GLP-1 receptor CHO cells
T1 construct: expressed in transfected cells; host or cells: Chinese hamster ovary (CHO)
Experimental: (§1) In order to measure the activity of the GLP-1/GIP dual agonist prepared in Example 1, an in vitro cell activity was measured using cell lines transformed with the GLP-1 receptor and the GIP receptor, respectively. The cell lines are transformed to express human GLP-1 and human GIP receptor genes in Chinese hamster ovary (CHO), respectively, and are suitable for measuring the activities of GLP-1 and GIP. Therefore, the activity for each part was measured using each transformed cell line.
To measure the GLP-1 activity of the dual agonist prepared in Example 1, human GLP-1 was diluted from 50 nM to 0.000048 nM by 4-fold serial dilution, and the dual agonist prepared in Example 1 was diluted from 50 nM to 0.000048 nM by 4-fold serial dilution. The culture medium was removed from the cultured human GLP-1 receptor-expressing CHO cells, 5 μl of each of the serially diluted materials was added to the cells, and then 5 μl of buffer containing cAMP antibody was added to the cells, followed by 15 minutes of incubation at room temperature. Then, cells were lysed by adding 10 μl of detection mix containing cell lysis buffer, and reacted at room temperature for 90 minutes. The cell lysate after the reaction had been completed, was applied to the LANCE cAMP kit (PerkinElmer, USA) to calculate the EC50 value through the accumulated cAMP, and then compared with each other.
(§2) In order to measure the activity of the long-acting conjugate of SEQ ID NOs: 20, 36, and 40 prepared in Example 3, the cell activity in vitro was measured using cell lines transformed with the GLP-1 receptor and the GIP receptor, respectively, in the same manner as in Example 2.
(§3) The cell lines were transformed to express the human GLP-1 receptor and the human GIP receptor genes in Chinese hamster ovary (CHO), respectively, and were each the same cell line used in Example 2. Activity for each part was measured using each transformed cell line. […]

human GIP receptor = target: T2, human GIP receptor (Homo sapiens, UniProt P48546); assay: In vitro cAMP activity in human GIP receptor-expressing CHO cells (LANCE cAMP kit); assay type: cell-based; conditions: long-acting conjugates (peptide-PEG-immunoglobulin Fc); relative titer from cAMP EC50, human GIP receptor CHO cells
T2 construct: expressed in transfected cells; host or cells: Chinese hamster ovary (CHO)
T2 sequence (P48546 22-466): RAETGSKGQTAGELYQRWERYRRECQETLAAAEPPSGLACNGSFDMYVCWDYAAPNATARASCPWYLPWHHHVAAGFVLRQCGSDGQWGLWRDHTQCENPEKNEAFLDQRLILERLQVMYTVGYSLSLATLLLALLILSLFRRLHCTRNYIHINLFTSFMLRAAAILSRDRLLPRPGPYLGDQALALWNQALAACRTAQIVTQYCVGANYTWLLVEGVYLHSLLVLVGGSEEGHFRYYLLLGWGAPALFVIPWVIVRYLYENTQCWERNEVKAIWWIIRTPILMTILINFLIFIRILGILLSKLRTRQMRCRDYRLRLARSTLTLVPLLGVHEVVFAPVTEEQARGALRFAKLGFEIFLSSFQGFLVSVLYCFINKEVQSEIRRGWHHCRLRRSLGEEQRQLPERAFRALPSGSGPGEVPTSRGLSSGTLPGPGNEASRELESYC
Experimental: as §1
To measure the GIP activity of the dual agonist prepared in Example 1, human GIP was diluted from 50 nM to […] by 4-fold serial dilution, and the dual agonist prepared in Example 1 was diluted from 50 nM to 0.000048 nM by 4-fold serial dilution. The culture medium was removed from the cultured human GIP receptor-expressing CHO cells, 5 μl of each of the serially diluted materials was added to the cells, and then 5 μl of buffer containing cAMP antibody was added to the cells, followed by 15 minutes of incubation at room temperature. Then, cells were lysed by adding 10 μl of detection mix containing cell lysis buffer, and reacted at room temperature for 90 minutes. The cell lysate after the reaction had been completed, was applied to the LANCE cAMP kit (PerkinElmer, USA) to calculate the EC50 value through the accumulated cAMP, and then compared with each other.
as §2, §3

T1 sequence (P43220 24-463): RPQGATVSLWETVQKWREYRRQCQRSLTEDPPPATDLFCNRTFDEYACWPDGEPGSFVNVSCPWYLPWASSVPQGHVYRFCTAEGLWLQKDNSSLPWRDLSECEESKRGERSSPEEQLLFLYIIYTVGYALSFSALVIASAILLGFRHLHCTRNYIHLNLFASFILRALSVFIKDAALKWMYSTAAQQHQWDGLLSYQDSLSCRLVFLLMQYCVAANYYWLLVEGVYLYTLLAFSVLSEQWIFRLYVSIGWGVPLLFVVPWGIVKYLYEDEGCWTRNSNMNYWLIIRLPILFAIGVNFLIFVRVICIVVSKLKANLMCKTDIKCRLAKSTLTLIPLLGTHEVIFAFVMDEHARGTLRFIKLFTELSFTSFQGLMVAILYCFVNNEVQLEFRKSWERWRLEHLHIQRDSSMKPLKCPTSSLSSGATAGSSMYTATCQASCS

36 (Y[Aib]EGTFTSDYSI[Aib]LDKQAQQAFVQWLIAGGPSSGAPPPSC) [compound 36]
In vitro activity compared to native peptide (%) vs human GLP-1 (human GLP-1 receptor): 3.9% | In vitro activity compared to native peptide (%) vs human GIP (human GIP receptor): 26.9%

40 (Y[Aib]EGTFTSDYSIALEKQAQRDFVNWLLAGGPSSGAPPPSC) [compound 40]
In vitro activity compared to native peptide (%) vs human GLP-1 (human GLP-1 receptor): 10.1% | In vitro activity compared to native peptide (%) vs human GIP (human GIP receptor): 24.7%

20 (Y[Aib]EGTFTSDYSI[Aib]LDKQAA[Aib]AFVQWLIAGGPSSGAPPPSC) [compound 20]
In vitro activity compared to native peptide (%) vs human GLP-1 (human GLP-1 receptor): 7.5% | In vitro activity compared to native peptide (%) vs human GIP (human GIP receptor): 62.1%

— patent US12552850B2, “GLP-1/GIP dual agonist, long-acting conjugate thereof, and pharmaceutical composition comprising same” (HANMI PHARM. CO., LTD., priority 2020, dated 2026)
